From patent publication US20180000755A1 (UNIVERSITY OF TOKYO, published 2018)

Target: T1, fragment consisting of the region of the 500th to 656th amino acids of FROUNT protein (Homo sapiens (Human), UniProt Q9BW27 500-656)
T1 construct: Fragment used in the NMR analysis; No tag is mentioned; also called FROUNT C-terminal fragment
T1 sequence: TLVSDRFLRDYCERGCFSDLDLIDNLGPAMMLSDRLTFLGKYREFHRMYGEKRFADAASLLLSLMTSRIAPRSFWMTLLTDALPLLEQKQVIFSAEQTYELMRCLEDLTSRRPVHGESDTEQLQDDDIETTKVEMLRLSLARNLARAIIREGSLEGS
Test: NMR chemical shift perturbation

binding result: binds
B1: CCR2 pro-C region fragment of 16 residues (SEQ ID NO:3) (peptide)
peptide: EKFRRYLSVFFRKHIT
notes: Peptide used in the NMR analysis; No biotinylation is mentioned
